System: MS2 coat protein
Experiment: apparent KD of MS2 coat protein; designed switch direction (-1 OFF switch, 1 ON switch): -1; higher = weaker reporter binding
In short: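 Transcription of designed RNA switches on Illumina chips was done by stalled E. coli RNA polymerase. SNAP-549-labelled MS2 coat protein was then titrated in doubling steps from 0.7 or 1.5 nM to 3 µM, with steps of 0.8–1.5 h at the lowest and 10–20 min at the highest concentration. The per-design median over clusters of curve-fitted normalised fluorescence is reported as apparent KD.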

[1] = Eterna round: R95, input ligand: microRNA oligo, concentration not stated
[2] = Eterna round: R95, input ligand: FMN 200 uM
[3] = Eterna round: R95, input ligand: none
[4] = input ligand: microRNA oligo, concentration not stated

| Sequence | apparent KD of MS2 coat protein [1] [nM] | apparent KD of MS2 coat protein [2] [nM] | apparent KD of MS2 coat protein [3] [nM] | apparent KD of MS2 coat protein (input ligand: FMN 200 uM) [nM] | apparent KD of MS2 coat protein (input ligand: none) [nM] | apparent KD of MS2 coat protein [4] [nM] |
| --- | --- | --- | --- | --- | --- | --- |
| GGUGCGUAUGUGAGGAUAUGCUGGUCCUUGGCUCGGCAGAAGGCACAUGAGGAUCACCCAUGUGGUGUCGUGCC [salish99_Bmod_ex4_056] (puzzle: Brourd's mod of Exclusion 4) | 15.3 |  |  |  |  |  |
| GAUGGACAUGAGGAUCACCCAUGUAAGGAUAUACGGUUGGUAGAGAGAGAGAGAAAUGGUAGAAGGUACGGAAA [JR_Exclu1_Sub051] (puzzle: Exclusion 1) | 46.6 | 36.5 | 50.3 |  |  |  |
| CGUUGGCGAGGAUAUACAUGAGGAUCACCCAUGUGAGAGAAAAAAGUGAGGAAGAAAAGUAGAAGGCGCUGACG [salish99_ex3_r3_050] (puzzle: Exclusion 3) | 101 | 350 | 34.9 |  |  |  |
| CCUUUGUCAGGAUAUCAGAACGCGCUCCUAGGGAGCGCAAAUGAGAAGGGACAUGAGGAUCACCCAUGUAAAGA [Erditive] (puzzle: Exclusion 4) | 48.9 | 228 | 59.2 |  |  |  |
| UCAUUGGUAGGAUAUACAUGAGGAUCACCCAUGUGUCCGGAGCAGUAUGCUUGAAAACGUAGAAGGACCUAGGA [Eternabot (L1) Solution 15] (Eterna round: R97, puzzle: Exclusion 3) |  |  |  | 45.3 | 40.4 |  |
| AUGUUAUUGGAAGGAUAUAGUUUACUAUUCUAACAUGAGGAUCACCCAUGUAACCUUAUGUGUAUCUAGAAGGUCCAUAACUUA (Eterna round: R96, puzzle: Exclusion NG 2) |  |  |  |  |  | 46.4 |
| CCUCUGUGAGGAUAUCGCGGCGGGCUAACUCGCAAACAAAACGAGAAGGCACAUGAGGAUCACCCAUGUAGGUG [Cetiis] (Eterna round: R97, puzzle: Exclusion 4) |  |  |  | 39.1 | 262 |  |
| AAAAGCCAAGGAUAUACAUGAGGAUCACCCAUGUAAGAAAUGGGCGCUACCGUUCCGUGUAGAAGGUGGGAAAA [Inuserce] (puzzle: Exclusion 3) | 26 |  |  |  |  |  |
| GGCAAUAUGUAGGAUAUCGUAUCGGAAACGAUACGAGAAGGGCAAACAUGAGGAUCACCCAUGUUCCUUAAGCC [Fiskers Ex 6 - 10] (puzzle: Exclusion 6) | 13.5 |  |  |  |  |  |
| UAAUUCAGAGGAUAUGCGCAUAGAUAAGACUUUUUUUUUUAACAUGAGGAUCACCCAUGUAGAAGGCUGUAAUU [Ex2 #54] (Eterna round: R97, puzzle: Exclusion 2) |  |  |  | 24 | 23.1 |  |
| UCCGUACAUGAGGAUCACCCAUGUCAGGAUAUGCAGACCGGCCGCCAGCGACCGGCCCGCAGAAGGGACAUAGA [EX1 B.4] (Eterna round: R97, puzzle: Exclusion 1) |  |  |  | 140 | 30.7 |  |
| UAAGAAUACUGAGGAUAUGCUAGUUUAUCUCAGGCAGAAGGCGGACUCAACAUGAGGAUCACCCAUGUAAGACGGGUACUAGAU [Ex NG1 #14] (Eterna round: R96, puzzle: Exclusion NG 1) |  |  |  | 131 | 89 | 92.2 |
| AGAUUACAUGAGGAUAUCGUAUUGGAUAUAGUGCGAGAAGGCAUGACAUGAGGAUCACCCAUGUAGUGUUGGGA [JR_Ex6_Sub010] (Eterna round: R97, puzzle: Exclusion 6) |  |  |  | 117 | 187 |  |
| AUUUAUGUUGAGGAUAUGCGAAUAAGUAUAGUUGCAGAAGGCGACACAUGAGGAUCACCCAUGUUCAUGGACCC [LRO-Ex6-02] (puzzle: Exclusion 6) | 81.5 | 181 | 127 |  |  |  |
| UGUUGUCGCGCAGGAUAUUGUCAACAGGCAAUAGGAUAUCCGAAAGGAGAAGGAUCGCCAACAGGCGAGAAGGGCGGGACAACU [pwkr exNG2 2xF7 2xFMN.4] (Eterna round: R96, puzzle: Exclusion NG 2) |  |  |  | 35.4 | 1200 | 478 |
| GAGUGACAUGAGGAUCACCCAUGUAAGGAUAUACGGUUGGUAGAGAGAGGGAGAAAGGGUAGAAGGUACGAAGG [JR_Exclu1_Sub053] (puzzle: Exclusion 1) | 44.1 | 45.5 | 101 |  |  |  |
| CAUACAGUAGUUAGGAUAUUGCAACACACACGGAACGAGAAGGGACAUGAGGAUCACCCAUGUAGACUGUAAAG [EX-4 Malc #6] (puzzle: Brourd's mod of Exclusion 4) | 27.2 | 20.7 | 24.5 |  |  |  |
| UACACUGCAUGAGGAUCAAACAUGAGGAUCACCCAUGUAUUGCAAGCUUUUUGCACGUCUUAUAAUUAUGUAGUGUA [Electric Eye 20 - Jieux - Sensor, turn-off variant 1] (Eterna round: R97, puzzle: Sensor, turn-off variant 1) |  |  |  | 17.2 | 17.2 |  |
| CCGUAGUCAGGAUAUACAUGAGGAUCACCCAUGUAAAAUUUUAAUUUAAUUUGAAGGUGUAGAAGGGACCAGUC [Ex3 #27] (Eterna round: R97, puzzle: Exclusion 3) |  |  |  | 34.9 | 33.3 |  |
| GGAUCGAGUGUGAGGAUAUGCUGGUCCUUGGAUCAGCAGAAGGCACAUGAGGAUCACCCAUGUGACUAAGAUCC [Eli bmx4 4.75] (Eterna round: R97, puzzle: Brourd's mod of Exclusion 4) |  |  |  | 322 | 29.8 |  |
| AAGUAUAGAGGAUAUAGUAGUUACAACAUGAGGAUCACCCAUGUUCUUCAUAGCGUAGAUCUAGAAGGCUGAUAAA [EX-5 Malc#30] (puzzle: Exclusion 5) | 110 | 265 | 119 |  |  |  |
| GUCGAGUGAGGAUAUGGUGAGUAGUGCCUGAGCGCUGCUCACCAGAAGGCACAUGAGGAUCACCCAUGUAUAAC [Mat - Exclusion 4 - Mod of JL - D14] (puzzle: Exclusion 4) | 22.3 |  |  |  |  |  |
| GGCCCUAGGGUCAGACGCACAAGCUUUUUGCUCGUUUUAACAUGAGGAUCACCCAUGUCUAGUGGAUCUGAUCGGGU [Mausinonra] (Eterna round: R96, puzzle: Sensor v3, turn-off variant 2) |  |  |  | 19.6 | 25.8 | 96.8 |
| GCAAGCUUUUAGGUUUUCAACAUGAGGAUCACCCAUGUUCGUCUUGUGCUCGGGCUUGGGCGGUGUCCGGGUUUGGG [JL TOV1 3.75 sellena mod] (Eterna round: R97, puzzle: Sensor, turn-off variant 1) |  |  |  | 40.4 | 43.7 |  |
| AGCUGUGGCCGAGGAUAUCUAAACCUCGAAAACGAAAUAUAAUCGAACAUGAGGAUCACCCAUGUAGAGAAGGCGGUCUCAGCA [Eli eng2 - 033] (Eterna round: R96, puzzle: Exclusion NG 2) |  |  |  |  |  | 51 |
| CAGUACUGAGGAUAUACAUGAGGAUCACCCAUGUUCUUCGGCUAGGAUACUAGCAAAGGUAGAAGGCAGUACUG [Mat - Exclusion 3 - Eli Mod - D27] (Eterna round: R97, puzzle: Exclusion 3) |  |  |  | 144 | 18.7 |  |
| AAUUAUUGAUGAGGAUAUUGUGGUGAAACACGACAAGAAGGCAUUAUUCACAUGAGGAUCACCCAUGUGAGCCUGAUGCAUAUA [Ex NG1 #60] (Eterna round: R96, puzzle: Exclusion NG 1) |  |  |  |  |  | 11.5 |

From the supplement of paper PMC9170038
